Reference: patent US20250115669A1, “FGFR1/KLB Targeting Agonistic Antigen-Binding Proteins and Conjugates Thereof with GLP-1R Agonistic Peptides” (SANOFI, priority 2020, published 2025)

Assays:
[1] = target: T1, FGFR1c and co-receptor beta-Klotho (KLB) (Homo sapiens, UniProt P11362+Q86Z14); experiment: Luciferase reporter gene assay (iLite FGF21 Assay Ready Cells), FGF21-like signaling; assay type: cell-based
T1 construct: host or cells: iLite FGF21 Assay Ready Cells (HEK293)

[2] = Dynamic light scattering (DLS) and diffusion interaction parameter (kD); assay type: physicochemical
Procedure: Dynamic light scattering (DLS) was performed using a DynaPro Plate Reader (Wyatt Technology). The samples were measured in 384 well assay plates (Corning) at 25° C. Data were evaluated by cumulant fitting using Dynamics Software version 7.7.0.125 (Wyatt Technology).
Colloidal stability of the samples was assessed by measuring the diffusion interaction parameter (kD) at 20° C. using a DynaPro Plate Reader (Wyatt Technology). Before the measurements the samples were buffer exchanged against 5 L of 10 mmol/L Histidine pH 6.0 by dialysis for 20 h with one buffer change using 1 mL Float-A-Lyzer G2 devices with 3.5-5 kDa cut-off (Spectrum Labs). A dilution series from 1 to 4.5 mg/mL, in 0.5 mg/mL increments, was prepared in 10 mmol/L Histidine pH 6.0 and measured in 384 well assay plates (Corning).

[3] = Hydrophobic interaction chromatography (HIC); assay type: physicochemical
Procedure: The analysis was run at a flow rate of 1 mL/min with detection at 280 nm. 5 μg of undiluted protein sample were applied onto the column. Gradient elution was from 15% B to 85% B in 7 min followed by 1 min to 100% B, then 1 min to 15% B and then 3 minutes equilibration at 15% B. Buffer A was composed of 1.5 mol/L ammonium sulfate, 25 mmol/L sodium phosphate pH 7.0. Buffer B was composed of 25 mmol/L sodium phosphate pH 7.0. Data evaluation was performed either using LabSolutions software v5.85 (Shimadzu) or Chromeleon 7 software (Thermo Fisher Scientific).

[4] = Nano differential scanning fluorimetry (nanoDSF), Tonset and Tm; assay type: physicochemical
Procedure: Onset temperatures (Tonset) and melting points (Tm) of protein denaturation were determined using nano differential scanning fluorimetry (nanoDSF). Samples were diluted in formulation buffer to a final concentration of 0.5 mg/mL and loaded into nanoDSF capillaries in duplicates (Nanotemper Technologies). All measurements were done using a Prometheus NT.plex nanoDSF device (Nanotemper Technologies). Heating rate was 1° C. per minute from 20° C. to 95° C. Data were recorded using PR.ThermControl Software v2.3.1 (Nanotemper Technologies) and analyzed using PR.Stability Analysis Software v1.0.3 (Nanotemper Technologies).

[5] = In vivo PK in cynomolgus monkeys, single intravenous dose; parameters: species or system Cynomolgus monkey (Macaca fascicularis); conditions: Macaca fascicularis, 3.0 mg/kg single IV, plasma
Procedure: Naive cynomolgus monkeys received a single intravenous dose of mAb according to the following table:
In all investigations, the animals were evaluated twice daily for post-dose mortality/moribundity and cage side clinical observations were carried out after each study blood collection time. Studies were Non-GLP, nevertheless, these studies have been conducted in a GLP compliant facility using practices detailed in Standard Operating Procedures consistent with the principles of GLP (Test facility: Sanofi and Charles River Laboratories). Plasma concentrations and pharmacokinetic parameters of the tested antibodies were investigated after single intravenous administration.

T1 sequence (Q86Z14 53-1044 limits assumed): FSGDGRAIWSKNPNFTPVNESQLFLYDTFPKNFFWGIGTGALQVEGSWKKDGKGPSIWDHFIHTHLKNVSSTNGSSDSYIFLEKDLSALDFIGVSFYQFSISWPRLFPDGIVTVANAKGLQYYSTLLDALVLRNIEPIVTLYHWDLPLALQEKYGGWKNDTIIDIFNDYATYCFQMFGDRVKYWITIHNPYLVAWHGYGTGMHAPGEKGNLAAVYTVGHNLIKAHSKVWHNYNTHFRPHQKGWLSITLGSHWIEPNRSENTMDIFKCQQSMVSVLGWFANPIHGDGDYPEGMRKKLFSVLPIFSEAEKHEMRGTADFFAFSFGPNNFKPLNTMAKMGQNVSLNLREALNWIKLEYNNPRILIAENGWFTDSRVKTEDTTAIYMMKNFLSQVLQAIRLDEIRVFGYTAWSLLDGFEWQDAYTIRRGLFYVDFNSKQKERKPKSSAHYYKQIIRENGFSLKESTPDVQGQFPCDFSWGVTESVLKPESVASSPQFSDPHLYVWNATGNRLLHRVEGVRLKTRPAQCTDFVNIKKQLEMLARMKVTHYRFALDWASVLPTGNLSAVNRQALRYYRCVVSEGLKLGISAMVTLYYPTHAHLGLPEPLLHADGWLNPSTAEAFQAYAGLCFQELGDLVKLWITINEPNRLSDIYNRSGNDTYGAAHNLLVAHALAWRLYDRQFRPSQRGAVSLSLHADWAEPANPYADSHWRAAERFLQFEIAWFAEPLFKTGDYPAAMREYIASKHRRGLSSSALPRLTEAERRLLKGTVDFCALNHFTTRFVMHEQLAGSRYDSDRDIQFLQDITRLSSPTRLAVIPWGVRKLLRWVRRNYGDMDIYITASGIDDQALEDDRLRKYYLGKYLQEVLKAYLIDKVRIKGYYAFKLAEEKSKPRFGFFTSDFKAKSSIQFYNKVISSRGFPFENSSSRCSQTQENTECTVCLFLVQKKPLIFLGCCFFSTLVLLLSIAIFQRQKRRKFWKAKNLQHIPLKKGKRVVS
T1 sequence (P11362 22-820 isoform P11362-2 limits assumed): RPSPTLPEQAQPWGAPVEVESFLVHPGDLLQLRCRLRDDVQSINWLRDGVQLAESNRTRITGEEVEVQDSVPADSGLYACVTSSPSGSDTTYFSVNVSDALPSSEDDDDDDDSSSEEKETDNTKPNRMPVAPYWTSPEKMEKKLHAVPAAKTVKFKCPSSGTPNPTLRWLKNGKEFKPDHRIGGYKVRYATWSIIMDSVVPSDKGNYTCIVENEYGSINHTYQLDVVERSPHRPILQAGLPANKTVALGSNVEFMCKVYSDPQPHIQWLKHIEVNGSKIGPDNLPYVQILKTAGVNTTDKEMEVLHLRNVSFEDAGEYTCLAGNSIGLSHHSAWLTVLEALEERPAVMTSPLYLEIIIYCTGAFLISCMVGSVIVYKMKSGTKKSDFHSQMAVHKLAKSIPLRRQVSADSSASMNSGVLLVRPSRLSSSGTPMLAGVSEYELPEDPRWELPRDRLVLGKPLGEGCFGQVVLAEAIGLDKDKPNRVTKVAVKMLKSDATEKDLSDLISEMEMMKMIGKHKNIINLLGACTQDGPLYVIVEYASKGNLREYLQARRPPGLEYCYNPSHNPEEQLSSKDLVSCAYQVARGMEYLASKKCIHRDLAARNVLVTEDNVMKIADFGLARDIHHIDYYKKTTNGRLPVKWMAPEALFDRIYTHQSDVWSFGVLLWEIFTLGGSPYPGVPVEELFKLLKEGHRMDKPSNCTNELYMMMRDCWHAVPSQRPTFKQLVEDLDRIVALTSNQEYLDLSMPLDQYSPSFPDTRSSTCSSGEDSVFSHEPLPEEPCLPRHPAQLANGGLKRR

Substance	Homogeneity DLS Hydrodynamic radius [2] [nm]	DLS Hydrodynamic radius ([2]; pH 5, 40° C., d 21) [nm]	DLS Hydrodynamic radius ([2]; pH 5, d 0) [nm]	DLS Hydrodynamic radius ([2]; pH 6, 40° C., d 21) [nm]	DLS Hydrodynamic radius ([2]; pH 6, d 0) [nm]	DLS Hydrodynamic radius ([2]; pH 8, 40° C., d 21) [nm]	DLS Hydrodynamic radius ([2]; pH 8, d 0) [nm]	Hydrophobic variance HIC Number of peaks [3]	HIC Number of peaks ([3]; pH 5, 40° C., d 21)	HIC Number of peaks ([3]; pH 5, d 0)	HIC Number of peaks ([3]; pH 6, 40° C., d 21)	HIC Number of peaks ([3]; pH 6, d 0)	HIC Number of peaks ([3]; pH 8, 40° C., d 21)	HIC Number of peaks ([3]; pH 8, d 0)	Thermal stability DSF Tm [4] [°C]	Thermal stability DSF Tonset [4] [°C]	DSF Tm ([4]; pH 5, 40° C., d 21) [°C]	DSF Tonset ([4]; pH 5, 40° C., d 21) [°C]	DSF Tm ([4]; pH 5, d 0) [°C]	DSF Tonset ([4]; pH 5, d 0) [°C]	other results
Ab0351: IgG4 PE; 16H7 VL (N25S, D49E, D50E, D91E, N93E); 16H7 VH (M34V, I83T, D109E); HC SEQ ID NO: 40, LC SEQ ID NO: 47	5.3	5.6	5.4	5.2	5.2	8.1	5.6	1	1	1	1	1	1	1	62	53	61	45	61	50	cellular activity in the Luciferase gene reporter assay compared to 16H7 [1]: comparable cellular activity; DSF Tm ([4]; pH 6, 40° C., d 21): 62 °C; DSF Tonset ([4]; pH 6, 40° C., d 21): 52 °C; DSF Tm ([4]; pH 6, d 0): 62 °C; DSF Tonset ([4]; pH 6, d 0): 53 °C; DSF Tm ([4]; pH 8, 40° C., d 21): 66 °C; DSF Tonset ([4]; pH 8, 40° C., d 21): 57 °C; DSF Tm ([4]; pH 8, d 0): 66 °C; DSF Tonset ([4]; pH 8, d 0): 58 °C
Ab0428: IgG1 NNAS; 16H7 VL (N25S, D49S, D50E, D91E, N93E); 16H7 VH (M34V, I83T, D109E); HC SEQ ID NO: 41, LC SEQ ID NO: 48	5.4	5.5	5.4	5.3	5.4	6.1	5.4	1	1	1	1	1	1	1	62	48	59	51	59	50	DSF Tm ([4]; pH 6, 40° C., d 21): 62 °C; DSF Tonset ([4]; pH 6, 40° C., d 21): 47 °C; DSF Tm ([4]; pH 6, d 0): 62 °C; DSF Tonset ([4]; pH 6, d 0): 48 °C; DSF Tm ([4]; pH 8, 40° C., d 21): 67 °C; DSF Tonset ([4]; pH 8, 40° C., d 21): 56 °C; DSF Tm ([4]; pH 8, d 0): 68 °C; DSF Tonset ([4]; pH 8, d 0): 54 °C
Ab0331: IgG4 PE; 16H7 VL (N25S, D49S, D50E, D91E, N93E); 16H7 VH (M34V, I83T, D109E); HC SEQ ID NO: 38, LC SEQ ID NO: 45	5.3	5.3	5.5	5.2	5	5.9	5.6	1	1	1	1	1	1	1	63	53	61	44	61	54	cellular activity in the Luciferase gene reporter assay compared to 16H7 [1]: comparable cellular activity; DSF Tm ([4]; pH 6, 40° C., d 21): 62 °C; DSF Tonset ([4]; pH 6, 40° C., d 21): 50 °C; DSF Tm ([4]; pH 6, d 0): 63 °C; DSF Tonset ([4]; pH 6, d 0): 53 °C; DSF Tm ([4]; pH 8, 40° C., d 21): 67 °C; DSF Tonset ([4]; pH 8, 40° C., d 21): 57 °C; DSF Tm ([4]; pH 8, d 0): 68 °C; DSF Tonset ([4]; pH 8, d 0): 58 °C; t½ [5]: 259 h
Ab0429: IgG1 NNAS; 16H7 VL (N25S, D49S, D50A, D91E, N93E); 16H7 VH (M34V, I83T, D109E); HC SEQ ID NO: 42, LC SEQ ID NO: 49	5.3	5.4	5.4	5.5	5.4	6.3	5.3	1	1	1	1	1	1	1	62	50	60	51	58	51	DSF Tm ([4]; pH 6, 40° C., d 21): 62 °C; DSF Tonset ([4]; pH 6, 40° C., d 21): 48 °C; DSF Tm ([4]; pH 6, d 0): 62 °C; DSF Tonset ([4]; pH 6, d 0): 50 °C; DSF Tm ([4]; pH 8, 40° C., d 21): 69 °C; DSF Tonset ([4]; pH 8, 40° C., d 21): 55 °C; DSF Tm ([4]; pH 8, d 0): 63 °C; DSF Tonset ([4]; pH 8, d 0): 53 °C; t½ [5]: 183 h
Ab0430: IgG1 NNAS; 16H7 VL (N25S, D49E, D50E, D91E, N93E); 16H7 VH (M34V, I83T, D109E); HC SEQ ID NO: 43, LC SEQ ID NO: 50	5.4	5.4	5.4	5.4	5.4	6.3	5.4	1	1	1	1	1	1	1	62	45	62	46	62	45	DSF Tm ([4]; pH 6, 40° C., d 21): 62 °C; DSF Tonset ([4]; pH 6, 40° C., d 21): 46 °C; DSF Tm ([4]; pH 6, d 0): 62 °C; DSF Tonset ([4]; pH 6, d 0): 45 °C; DSF Tm ([4]; pH 8, 40° C., d 21): 66 °C; DSF Tonset ([4]; pH 8, 40° C., d 21): 56 °C; DSF Tm ([4]; pH 8, d 0): 66 °C; DSF Tonset ([4]; pH 8, d 0): 56 °C
